The experiment concerns the target wild-type HCoV-229E Nsp9 (non-structural protein 9 of human coronavirus 229E) (human coronavirus 229E). Kind of experiment: crystal structure.

As a reminder, the stoichiometry N is a count of units in the complex or per binding partner.

In turn, “wild-type HCoV-229E Nsp9 (non-structural protein 9 of human coronavirus 229E) (natural protein)” returned a stoichiometry N of 2.

The values are drawn from article PMC7094590.
